T1: oligomycin sensitivity-conferring protein (OSCP), endogenous in HEK cells (human (endogenous in HEK), UniProt P48047 24-213)
T1 construct: OSCP subunit of the mitochondrial ATP synthase, immunoprecipitated or stained in HEK cell lines; also called OSCP subunit of the ATP synthase; source: endogenous, HEK CypD mutant cell lines
T1 sequence (looked up): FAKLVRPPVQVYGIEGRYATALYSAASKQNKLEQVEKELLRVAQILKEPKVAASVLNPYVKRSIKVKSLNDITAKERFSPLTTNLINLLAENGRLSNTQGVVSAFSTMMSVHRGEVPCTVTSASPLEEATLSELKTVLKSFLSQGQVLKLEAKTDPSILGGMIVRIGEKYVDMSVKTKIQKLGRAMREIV

T2: oligomycin sensitivity-conferring protein (OSCP) tagged with Clover GFP (UniProt P48047 24-213)
T2 construct: OSCP subunit of the mitochondrial ATP synthase; One vector carries OSCP-Clover and, downstream of an IRES, CypD-Scarlet; also called OSCP-Clover; OSCP subunit of the ATP synthase; source: HEK cells, transfected, in cells
T2 sequence (looked up): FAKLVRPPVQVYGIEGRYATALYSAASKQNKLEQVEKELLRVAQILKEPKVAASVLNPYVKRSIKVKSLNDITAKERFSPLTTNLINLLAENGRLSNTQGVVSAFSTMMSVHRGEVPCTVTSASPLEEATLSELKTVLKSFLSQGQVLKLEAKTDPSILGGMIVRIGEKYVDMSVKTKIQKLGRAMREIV


Biological target: T1, oligomycin sensitivity-conferring …
Experiment: co-IP; OSCP immunoprecipitation in HEK CypD mutant cell lines, immunoblots of CypD and OSCP; quantified as fold vs. WT
Details: partners not purified

Binder	CypD co-immunoprecipitated with OSCP, fold vs. WT [fold vs. WT]
cyclophilin D (CypD) WT, rescued in HEK CypD-KO cells (natural protein, also called WT group; source: HEK CypD-KO cells (CRISPR/Cas9) rescued with WT CypD, in cells or lysate) not shown	1
cyclophilin D (CypD) phosphoresistant S191A mutant, rescued in HEK CypD-KO cells (natural protein, also called phosphoresistant S191A group; source: HEK CypD-KO cells (CRISPR/Cas9) rescued with mutated CypD, in cells or lysate) not shown	0.65
cyclophilin D (CypD) phosphomimetic S191E mutant, rescued in HEK CypD-KO cells (natural protein, also called phosphomimetic S191E group; source: HEK CypD-KO cells (CRISPR/Cas9) rescued with mutated CypD, in cells or lysate) not shown	1.48

Biological target: T2, oligomycin sensitivity-conferring …
Experiment: FRET or BRET; HEK cells transfected with OSCP-Clover and WT or mutant CypD-Scarlet downstream of an IRES; excitation 458 nm, emission 505-540 nm and 575-620 nm; FRET ratio
Details: partners not purified

Binder	FRET ratio
cyclophilin D (CypD) WT tagged with Scarlet (natural protein, also called PPIF; source: HEK cells, transfected, in cells) not shown	1.92
cyclophilin D (CypD) phosphoresistant S191A mutant tagged with Scarlet (natural protein, source: HEK cells, transfected, in cells) not shown	1.29
cyclophilin D (CypD) phosphomimetic S191E mutant tagged with Scarlet (natural protein, also called phosphomimetic mutant S191E; source: HEK cells, transfected, in cells) not shown	2.44

Reference: PMC7438327 (Cell Death & Disease, 2020)
